From patent US20180244785A1 (MERRIMACK PHARMACEUTICALS, published 2018)
Residue numbers refer to the chain shown, from its start.

B1: Ab43 (antibody, human IgG2, kappa, V domains shown)
VH: EVQLLESGGGVVQPGRSLRLSCAASGFTFSSYAMHWVRQAPGKGLEWVAVISYDGSNKYYADSVKGRFTISRDNSKNTLSLQMNSLRVEDTAIYYCVRGAGRGYPYGPDGFDIWGQGTMVTVSS
VL: DIVMTQTPLSLSVTPGQPASISCRSSRSLLHSDGKTYVYWYVQKSGQPPQLLIYELSNRFSGVPDRFSGSGSRTDFTLKISRVEAEDVGVYYCMQYIEAPLTFGGGTKVEIKR
notes: format in the assays not spelled out
B2: Ab65 (antibody, human IgG2, kappa, V domains shown)
VH: B1 VH
VL: B1 VL with R24T
notes: as for B1
B3: Ab57 (antibody, human IgG2, kappa, V domains shown)
VH: B1 VH with R102L, Y104F
VL: B1 VL with R24T
notes: as for B1
B4: Ab67 (antibody, human IgG2, kappa, V domains shown)
VH: B1 VH with Y104F
VL: B1 VL with R24T
notes: as for B1
B5: Ab76 (antibody, human IgG2, kappa, V domains shown)
VH: B1 VH with T28D, S30A, S31G, Y104L, P105T
VL: B1 VL with R24K
notes: as for B1
B6: Ab83 (antibody, human IgG2, kappa, V domains shown)
VH: B1 VH with Y104F
VL: B1 VL with R24K
notes: as for B1
B7: Ab51 (antibody, human IgG2, kappa, V domains shown)
VH: B1 VH with Y104F
VL: B1 VL
notes: as for B1
B8: Ab49 (antibody, human IgG2, kappa, V domains shown)
VH: B1 VH
VL: B1 VL
notes: as for B1
B9: Ab88 (antibody, human IgG2, kappa, V domains shown)
VH: B1 VH with Y104L, P105T
VL: B1 VL with R24K, V38L
notes: as for B1
B10: Ab82 (antibody, human IgG2, kappa, V domains shown)
VH: B1 VH with R102L, Y104F, Y106F
VL: B1 VL with R24K
notes: as for B1
B11: Ab68 (antibody, human IgG2, kappa, V domains shown)
VH: B1 VH with R102L, Y106N
VL: B1 VL with R24T
notes: as for B1
B12: Ab70 (antibody, human IgG2, kappa, V domains shown)
VH: B1 VH with R102Q
VL: B1 VL with R24K
notes: as for B1
B13: Ab63 (antibody, human IgG2, kappa, V domains shown)
VH: B1 VH with Y106H
VL: B1 VL with R24T
notes: as for B1
B14: Ab72 (antibody, human IgG2, kappa, V domains shown)
VH: B1 VH with R102M, Y104L, P105T
VL: B1 VL with R24K
notes: as for B1
B15: Ab56 (antibody, human IgG2, kappa, V domains shown)
VH: B1 VH with R102M, Y104L, P105T
VL: B1 VL with R24T
notes: as for B1
B16: Ab89 (antibody, human IgG2, kappa, V domains shown)
VH: B1 VH with Y104F
VL: B1 VL with A99V
notes: as for B1

Target: T1, 6His-Fc-FGFR4 (human, UniProt P22455 144-369)
T1 construct: not shown: 6His tag and Fc as named in '6His-Fc-FGFR'
T1 sequence: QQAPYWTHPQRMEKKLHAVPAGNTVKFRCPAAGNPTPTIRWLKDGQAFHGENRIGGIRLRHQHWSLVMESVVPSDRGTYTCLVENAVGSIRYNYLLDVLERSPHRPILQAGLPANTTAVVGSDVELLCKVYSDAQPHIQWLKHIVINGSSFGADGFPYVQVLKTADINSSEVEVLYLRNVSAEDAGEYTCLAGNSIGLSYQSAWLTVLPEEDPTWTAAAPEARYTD
Experiment: competition ELISA, blocks 6His-Fc-FGFR4 binding to coated FGF2
Method: (§1) ELISA plates were coated with 50 ug/ml Heparin Sulfate (HSPG) (Sigma Aldrich) and incubated overnight at room temperature. Plates were then washed extensively with PBS containing 0.05% v/v Tween20 (PBST). Plates were then blocked with 2.5% BSA in PBST for one hour and washed extensively as before. 40-60 μL of FGF1 or FGF2 was then added to each well at 40 μg/ml and allowed to bind at room temperature for 2 hours. Plates were then washed extensively with PBST as before. Stock solutions of each 6His-Fc-FGFR (FGFR1-4) were prepared at 500 ng/ml in 2% v/v BSA-PBST and each antibody was prepared as a 2×-dilution series in 2% v/v BSA-PBST. Antibodies dilution series and 6His-Fc-FGFR1-4 were diluted in a 1:1 fashion and immediately added to the relative wells of the plate and allowed to bind for 2 hours at room temperature. Plates were washed extensively as before with PBST and the remaining fraction of bound 6His-Fc-FGFR was detected using a polyclonal-anti-His-6-HRP conjugated antibody (Abcam) for one hour at room temperature. After extensive washing with PBST, 50 μl of Pierce Chemiluminescent substrate (Thermo Fisher Scientific, Rockford, USA) was added and plates were measured on an Envision plate reader (Perkin Elmer). Raw data was background corrected and plotted using Prism software. […]

Binder	IC50 [nM]
B1	10
B2	13.4
B3	8.41
B4	12.8
B5	37.3
B6	154
B7	21.1
B8	18.4
B9	19
B10	10.4
B11	5.67
B12	19.8
B13	17.4
B14	11.6
B15	13.6
B16	27.4

Target: T2, 6His-Fc-FGFR1c (human, UniProt P11362 141-376)
T2 construct: not shown: 6His tag and Fc as named in '6His-Fc-FGFR'
T2 sequence: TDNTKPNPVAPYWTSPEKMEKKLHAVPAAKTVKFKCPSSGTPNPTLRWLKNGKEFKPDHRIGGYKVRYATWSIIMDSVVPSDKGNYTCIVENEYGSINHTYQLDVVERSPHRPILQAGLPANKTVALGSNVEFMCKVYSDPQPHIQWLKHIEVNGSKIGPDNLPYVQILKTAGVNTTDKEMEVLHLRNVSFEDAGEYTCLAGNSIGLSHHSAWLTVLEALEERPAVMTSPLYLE
Experiment: competition ELISA, blocks 6His-Fc-FGFR1c binding to coated FGF2
Method: as §1

Binder	IC50 [nM]
B1	6.62
B2	3.18
B3	2.8
B4	5.36
B5	6.3
B6	9.23
B7	3.86
B8	4.67
B9	8.02
B10	2.7
B11	2.96
B12	4.59
B13	12.2
B14	1.77
B15	3.03
B16	11.1
